Measurements as given in patent US20240117018A1.

Key:
Test in all cases: cell-based or functional assay
[1] = molecular target: HIV-1 Env of pseudovirus 1054_07_TC4_1499 (HIV-1)
[2] = molecular target: HIV-1 Env of pseudovirus 1394C9G1(Rev-) (HIV-1)
[3] = molecular target: HIV-1 Env of pseudovirus 191084 B7-19 (HIV-1)
[4] = molecular target: HIV-1 Env of pseudovirus 246F C1G (HIV-1)
[5] = molecular target: HIV-1 Env of pseudovirus 3103.v3.c10 (HIV-1)
[6] = molecular target: HIV-1 Env of pseudovirus 3301.v1.c24 (HIV-1)
[7] = molecular target: HIV-1 Env of pseudovirus 620345.c01 (HIV-1)
[8] = molecular target: HIV-1 Env of pseudovirus 6480.v4.c25 (HIV-1)
[9] = molecular target: HIV-1 Env of pseudovirus 6535.3 (HIV-1)
[10] = molecular target: HIV-1 Env of pseudovirus 928-28 (HIV-1)
[11] = molecular target: HIV-1 Env of pseudovirus C2101.c01 (HIV-1)
[12] = molecular target: HIV-1 Env of pseudovirus C4118.c09 (HIV-1)
[13] = molecular target: HIV-1 Env of pseudovirus CAAN5342.A2 (HIV-1)
[14] = molecular target: HIV-1 Env of pseudovirus CAP210.2.00.E8 (HIV-1)
[15] = molecular target: HIV-1 Env of pseudovirus CNE19 (HIV-1)
[16] = molecular target: HIV-1 Env of pseudovirus CNE21 (HIV-1)
[17] = molecular target: HIV-1 Env of pseudovirus CNE30 (HIV-1)
[18] = molecular target: HIV-1 Env of pseudovirus Ce0682_E4 (HIV-1)
[19] = molecular target: HIV-1 Env of pseudovirus Ce1172_H1 (HIV-1)
[20] = molecular target: HIV-1 Env of pseudovirus Ce1176_A3 (HIV-1)
[21] = molecular target: HIV-1 Env of pseudovirus Ce703010054_2A2 (HIV-1)
[22] = molecular target: HIV-1 Env of pseudovirus Du156.12 (HIV-1)
[23] = molecular target: HIV-1 Env of pseudovirus HIV-16055-2.3 (HIV-1)
[24] = molecular target: HIV-1 Env of pseudovirus HIV-16845-2.22 (HIV-1)
[25] = molecular target: HIV-1 Env of pseudovirus P1981_C5_3 (HIV-1)
[26] = molecular target: HIV-1 Env of pseudovirus PVO.4 (HIV-1)
[27] = molecular target: HIV-1 Env of pseudovirus Q23.17 (HIV-1)
[28] = molecular target: HIV-1 Env of pseudovirus Q769.d22 (HIV-1)
[29] = molecular target: HIV-1 Env of pseudovirus SC05_8C11_2344 (HIV-1)
[30] = molecular target: HIV-1 Env of pseudovirus SC422661.8 (HIV-1)
[31] = molecular target: HIV-1 Env of pseudovirus T250-4 (HIV-1)
[32] = molecular target: HIV-1 Env of pseudovirus T251-18 (HIV-1)
[33] = molecular target: HIV-1 Env of pseudovirus THRO4156.18 (HIV-1)
[34] = molecular target: HIV-1 Env of pseudovirus TRO.11 (HIV-1)
[35] = molecular target: HIV-1 Env of pseudovirus WITO4160.33 (HIV-1)
[36] = molecular target: HIV-1 Env of pseudovirus ZM247v1(Rev-) (HIV-1)

## PGDM1400 (antibody)
[1]
  neutralization IC50: > 50 µg/mL
  neutralization IC80: > 50 µg/mL
[2]
  neutralization IC50: < 0.001 µg/mL
  neutralization IC80: 0.004 µg/mL
[3]
  neutralization IC50: < 0.001 µg/mL
  neutralization IC80: 0.007 µg/mL
[4]
  neutralization IC50: > 50 µg/mL
  neutralization IC80: > 50 µg/mL
[5]
  IC50 (Titer in TZM.bl cells): 0.671 µg/mL
  IC80 (Titer in TZM.bl cells): 2 µg/mL
[6]
  IC50 (Titer in TZM.bl cells): 0.048 µg/mL
  IC80 (Titer in TZM.bl cells): 0.245 µg/mL
[7]
  IC50 (Titer in TZM.bl cells): 0.009 µg/mL
  IC80 (Titer in TZM.bl cells): 40.3 µg/mL
[8]
  IC50 (Titer in TZM.bl cells): > 50 µg/mL
  IC80 (Titer in TZM.bl cells): > 50 µg/mL
[9]
  neutralization IC50: > 50 µg/mL
  neutralization IC80: > 50 µg/mL
[10]
  neutralization IC50: 0.22 µg/mL
  neutralization IC80: 1.25 µg/mL
[11]
  IC50 (Titer in TZM.bl cells): 0.006 µg/mL
  IC80 (Titer in TZM.bl cells): 0.021 µg/mL
[12]
  IC50 (Titer in TZM.bl cells): 0.002 µg/mL
  IC80 (Titer in TZM.bl cells): 0.005 µg/mL
[13]
  neutralization IC50: > 50 µg/mL
  neutralization IC80: > 50 µg/mL
[14]
  neutralization IC50: 0.034 µg/mL
  neutralization IC80: 0.514 µg/mL
[15]
  neutralization IC50: 0.001 µg/mL
  neutralization IC80: 0.007 µg/mL
[16]
  neutralization IC50: < 0.001 µg/mL
  neutralization IC80: 0.002 µg/mL
[17]
  neutralization IC50: > 50 µg/mL
  neutralization IC80: > 50 µg/mL
[18]
  neutralization IC50: 0.01 µg/mL
  neutralization IC80: 0.043 µg/mL
[19]
  neutralization IC50: 0.021 µg/mL
  neutralization IC80: 0.06 µg/mL
[20]
  neutralization IC50: 0.587 µg/mL
  neutralization IC80: 11.6 µg/mL
[21]
  neutralization IC50: 0.015 µg/mL
  neutralization IC80: 0.26 µg/mL
[22]
  neutralization IC50: 0.002 µg/mL
  neutralization IC80: 0.008 µg/mL
[23]
  neutralization IC50: < 0.001 µg/mL
  neutralization IC80: 0.003 µg/mL
[24]
  neutralization IC50: > 50 µg/mL
  neutralization IC80: > 50 µg/mL
[25]
  IC50 (Titer in TZM.bl cells): 0.104 µg/mL
  IC80 (Titer in TZM.bl cells): 4.6 µg/mL
[26]
  neutralization IC50: 0.484 µg/mL
  neutralization IC80: 6.49 µg/mL
[27]
  neutralization IC50: < 0.001 µg/mL
  neutralization IC80: 0.003 µg/mL
[28]
  neutralization IC50: 0.002 µg/mL
  neutralization IC80: 0.018 µg/mL
[29]
  neutralization IC50: 1.26 µg/mL
  neutralization IC80: 3.59 µg/mL
[30]
  neutralization IC50: 0.436 µg/mL
  neutralization IC80: 6.53 µg/mL
[31]
  neutralization IC50: < 0.001 µg/mL
  neutralization IC80: < 0.001 µg/mL
[32]
  IC50 (Titer in TZM.bl cells): 8.62 µg/mL
  IC80 (Titer in TZM.bl cells): 43.1 µg/mL
[33]
  neutralization IC50: 0.072 µg/mL
  neutralization IC80: 0.348 µg/mL
[34]
  neutralization IC50: 0.283 µg/mL
  neutralization IC80: 1.38 µg/mL
[35]
  neutralization IC50: < 0.001 µg/mL
  neutralization IC80: 0.008 µg/mL
[36]
  neutralization IC50: 0.019 µg/mL
  neutralization IC80: 0.051 µg/mL
